Laboratory results reported in IntAct's records for PubMed 17567753.

B1: Lysine-specific demethylase 4A (Homo sapiens), O75164 (parent)
chain: MASESETLNPSARIMTFYPTMEEFRNFSRYIAYIESQGAHRAGLAKVVPPKEWKPRASYDDIDDLVIPAPIQQLVTGQSGLFTQYNIQKKAMTVREFRKIANSDKYCTPRYSEFEELERKYWKNLTFNPPIYGADVNGTLYEKHVDEWNIGRLRTILDLVEKESGITIEGVNTPYLYFGMWKTSFAWHTEDMDLYSINYLHFGEPKSWYSVPPEHGKRLERLAKGFFPGSAQSCEAFLRHKMTLISPLMLKKYGIPFDKVTQEAGEFMITFPYGYHAGFNHGFNCAESTNFATRRWIEYGKQAVLCSCRKDMVKISMDVFVRKFQPERYKLWKAGKDNTVIDHTLPTPEAAEFLKESELPPRAGNEEECPEEDMEGVEDGEEGDLKTSLAKHRIGTKRHRVCLEIPQEVSQSELFPKEDLSSEQYEMTECPAALAPVRPTHSSVRQVEDGLTFPDYSDSTEVKFEELKNVKLEEEDEEEEQAAAALDLSVNPASVGGRLVFSGSKKKSSSSLGSGSSRDSISSDSETSEPLSCRAQGQTGVLTVHSYAKGDGRVTVGEPCTRKKGSAARSFSERELAEVADEYMFSLEENKKSKGRRQPLSKLPRHHPLVLQECVSDDETSEQLTPEEEAEETEAWAKPLSQLWQNRPPNFEAEKEFNETMAQQAPHCAVCMIFQTYHQVEFGGFNQNCGNASDLAPQKQRTKPLIPEMCFTSTGCSTDINLSTPYLEEDGTSILVSCKKCSVRVHASCYGVPPAKASEDWMCSRCSANALEEDCCLCSLRGGALQRANDDRWVHVSCAVAILEARFVNIAERSPVDVSKIPLPRFKLKCIFCKKRRKRTAGCCVQCSHGRCPTAFHVSCAQAAGVMMQPDDWPFVVFITCFRHKIPNLERAKGALQSITAGQKVISKHKNGRFYQCEVVRLTTETFYEVNFDDGSFSDNLYPEDIVSQDCLQFGPPAEGEVVQVRWTDGQVYGAKFVASHPIQMYQVEFEDGSQLVVKRDDVYTLDEELPKRVKSRLSVASDMRFNEIFTEKEVKQEKKRQRVINSRYREDYIEPALYRAIME

Variants of: B1
Conditions: with h31t_human H3-4, Q16695

Variant	effect of a mutation on the interaction
N86A	decreasing interaction
D135A	decreasing interaction
K241L	disrupting interaction
K241A	disrupting interaction
Q88A	decreasing interaction
Y177L	disrupting interaction
Y177F	decreasing interaction
Y175F	decreasing interaction
N290I	disrupting interaction
N290D	disrupting interaction
N290A	disrupting interaction
N290V	disrupting interaction

Variants of: B1
Conditions: with h31t_human H3-4, Q16695
Remark: another data set of the same source

Variant	effect of a mutation on the interaction
G133A;G138A	disrupting interaction strength
G165A;G170A	disrupting interaction strength
